Test results from patent publication US20220090005A1, “Supplemented Serum-Containing Culture Medium for Enhanced Arpe-19 Growth and Human Cytomegalovirus Vaccine Production” (priority 2019, published 2022).

System: ARPE-19 cells
Assay: Screening of individual supplements on ARPE-19 cell growth, 96-well plate, Hoechst nuclear stain
Type: cell-based, human
Settings: components with p-value of <0.05; DMEM/F12 2% FBS, days 2-8 post plant, FIG. 1

B1: EGF: Epidermal Growth Factor, growth factor supplement (protein, UniProt P01133 23-1207, looked up)
Pro-epidermal growth factor: PQHWSCPEGTLAGNGNSTCVGPAPFLIFSHGNSIFRIDTEGTNYEQLVVDAGVSVIMDFHYNEKRIYWVDLERQLLQRVFLNGSRQERVCNIEKNVSGMAINWINEEVIWSNQQEGIITVTDMKGNNSHILLSALKYPANVAVDPVERFIFWSSEVAGSLYRADLDGVGVKALLETSEKITAVSLDVLDKRLFWIQYNREGSNSLICSCDYDGGSVHISKHPTQHNLFAMSLFGDRIFYSTWKMKTIWIANKHTGKDMVRINLHSSFVPLGELKVVHPLAQPKAEDDTWEPEQKLCKLRKGNCSSTVCGQDLQSHLCMCAEGYALSRDRKYCEDVNECAFWNHGCTLGCKNTPGSYYCTCPVGFVLLPDGKRCHQLVSCPRNVSECSHDCVLTSEGPLCFCPEGSVLERDGKTCSGCSSPDNGGCSQLCVPLSPVSWECDCFPGYDLQLDEKSCAASGPQPFLLFANSQDIRHMHFDGTDYGTLLSQQMGMVYALDHDPVENKIYFAHTALKWIERANMDGSQRERLIEEGVDVPEGLAVDWIGRRFYWTDRGKSLIGRSDLNGKRSKIITKENISQPRGIAVHPMAKRLFWTDTGINPRIESSSLQGLGRLVIASSDLIWPSGITIDFLTDKLYWCDAKQSVIEMANLDGSKRRRLTQNDVGHPFAVAVFEDYVWFSDWAMPSVMRVNKRTGKDRVRLQGSMLKPSSLVVVHPLAKPGADPCLYQNGGCEHICKKRLGTAWCSCREGFMKASDGKTCLALDGHQLLAGGEVDLKNQVTPLDILSKTRVSEDNITESQHMLVAEIMVSDQDDCAPVGCSMYARCISEGEDATCQCLKGFAGDGKLCSDIDECEMGVPVCPPASSKCINTEGGYVCRCSEGYQGDGIHCLDIDECQLGEHSCGENASCTNTEGGYTCMCAGRLSEPGLICPDSTPPPHLREDDHHYSVRNSDSECPLSHDGYCLHDGVCMYIEALDKYACNCVVGYIGERCQYRDLKWWELRHAGHGQQQKVIVVAVCVVVLVMLLLLSLWGAHYYRTQKLLSKNPKNPYEESSRDVRSRRPADTEDGMSSCPQPWFVVIKEHQDLKNGGQPVAGEDGQAADGSMQPTSWRQEPQLCGMGTEQGCWIPVSSDKGSCPQVMERSFHMPSYGTQTLEGGVEKPHSLLSANPLWQQRALDPPHQMELTQ
modifications: Pro-epidermal growth factor
notes: Epidermal Growth Factor, growth factor supplement
- effect on cell growth: positive effect on cell growth
